Test [1] deals with BCMA (TNFRSF17) on NCI-H929 cells (UniProt Q02223). Description: cell-based or functional assay.
The target is the same in test [2]. The test can be described thus: cell-based or functional assay. The source holds these as a separate data set.

Among the data in patent US20250152729A1 are Average NCI-H929 IC50 [pM], cell kill, EC50 (nM), Fab-pHast internalisation into NCI-H929 and Fold-Change values, retold here.

Read-outs that look alike come from different tables or passages of the source.

Sequence of BCMA (TNFRSF17) on NCI-H929 cells (Q02223 whole entry): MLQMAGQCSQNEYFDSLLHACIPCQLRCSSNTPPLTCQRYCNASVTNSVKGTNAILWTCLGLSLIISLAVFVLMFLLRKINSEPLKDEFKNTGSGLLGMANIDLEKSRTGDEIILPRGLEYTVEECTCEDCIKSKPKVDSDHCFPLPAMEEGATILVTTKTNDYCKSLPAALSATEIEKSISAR

In test [1], “J6M0 anti-BCMA human Alya IgG1 conjugated to McMMAF (antibody)” yielded an Average NCI-H929 IC50 [pM], cell kill of 74.5 pM; an EC50 (nM), Fab-pHast internalisation into NCI-H929 of 11 nM; a Fold-Change at 6 hours (10 nM), Fab-pHast internalisation of 37 fold. The Average NCI-H929 IC50 [pM], cell kill in test [2] was found to be 110 pM.
